From US20260117202A1
Where “and” joins values, the source holds several entries; their conditions need not be identical. Equal entries are not always repeated.

Legend:
[1] = biological target: FHCS-4 (RSV strain A2) (UniProt P03420); assay: ELISA; F coated 2500 ng/ml; stored 37° C. 4 W
[2] = biological target: FHCS-1 (RSV strain A2) (UniProt P03420); assay: ELISA; F coated 2500 ng/ml; stored 37° C. 4 W
[3] = biological target: FHCS-2 (RSV strain A2) (UniProt P03420); assay: ELISA; F coated 2500 ng/ml; stored 37° C. 4 W
[4] = biological target: FHCS-4 (RSV strain A2) (UniProt P03420); assay: ELISA; F coated 2500 ng/ml; stored -80° C.
[5] = biological target: FHCS-1 (RSV strain A2) (UniProt P03420); assay: ELISA; F coated 2500 ng/ml; stored -80° C.
[6] = biological target: FHCS-2 (RSV strain A2) (UniProt P03420); assay: ELISA; F coated 2500 ng/ml; stored -80° C.
[7] = biological target: FHCS-4 (RSV strain A2) (UniProt P03420); assay: ELISA; F coated 5000 ng/ml; stored -80° C.
[8] = biological target: FHCS-2 (RSV strain A2) (UniProt P03420); assay: ELISA; F coated 5000 ng/ml; stored -80° C.
[9] = biological target: FHCS-4 (RSV strain A2) (UniProt P03420); assay: ELISA; F coated 312.5 ng/ml; stored 37° C. 4 W
[10] = biological target: FHCS-1 (RSV strain A2) (UniProt P03420); assay: ELISA; F coated 312.5 ng/ml; stored 37° C. 4 W
[11] = biological target: FHCS-2 (RSV strain A2) (UniProt P03420); assay: ELISA; F coated 312.5 ng/ml; stored 37° C. 4 W
[12] = biological target: FHCS-4 (RSV strain A2) (UniProt P03420); assay: ELISA; F coated 10000 ng/ml; stored -80° C.
[13] = biological target: FHCS-1 (RSV strain A2) (UniProt P03420); assay: ELISA; F coated 10000 ng/ml; stored -80° C.
[14] = biological target: FHCS-2 (RSV strain A2) (UniProt P03420); assay: ELISA; F coated 10000 ng/ml; stored -80° C.
[15] = biological target: FHCS-4 (RSV strain A2) (UniProt P03420); assay: ELISA; F coated 312.5 ng/ml; stored -80° C.
[16] = biological target: FHCS-1 (RSV strain A2) (UniProt P03420); assay: ELISA; F coated 312.5 ng/ml; stored -80° C.
[17] = biological target: FHCS-2 (RSV strain A2) (UniProt P03420); assay: ELISA; F coated 312.5 ng/ml; stored -80° C.
[18] = biological target: FHCS-4 (RSV strain A2) (UniProt P03420); assay: ELISA; F coated 625 ng/ml; stored 37° C. 4 W
[19] = biological target: FHCS-1 (RSV strain A2) (UniProt P03420); assay: ELISA; F coated 625 ng/ml; stored 37° C. 4 W
[20] = biological target: FHCS-2 (RSV strain A2) (UniProt P03420); assay: ELISA; F coated 625 ng/ml; stored 37° C. 4 W
[21] = biological target: FHCS-4 (RSV strain A2) (UniProt P03420); assay: ELISA; F coated 1250 ng/ml; stored 37° C. 4 W
[22] = biological target: FHCS-1 (RSV strain A2) (UniProt P03420); assay: ELISA; F coated 1250 ng/ml; stored 37° C. 4 W
[23] = biological target: FHCS-2 (RSV strain A2) (UniProt P03420); assay: ELISA; F coated 1250 ng/ml; stored 37° C. 4 W
[24] = biological target: FHCS-4 (RSV strain A2) (UniProt P03420); assay: ELISA; F coated 625 ng/ml; stored -80° C.
[25] = biological target: FHCS-1 (RSV strain A2) (UniProt P03420); assay: ELISA; F coated 625 ng/ml; stored -80° C.
[26] = biological target: FHCS-2 (RSV strain A2) (UniProt P03420); assay: ELISA; F coated 625 ng/ml; stored -80° C.
[27] = biological target: FHCS-4 (RSV strain A2) (UniProt P03420); assay: ELISA; F coated 312.5 ng/ml; stored -80° C.; remark: listed apart in the source
[28] = biological target: FHCS-2 (RSV strain A2) (UniProt P03420); assay: ELISA; F coated 312.5 ng/ml; stored -80° C.; remark: listed apart in the source
[29] = biological target: FHCS-4 (RSV strain A2) (UniProt P03420); assay: ELISA; F coated 1250 ng/ml; stored -80° C.
[30] = biological target: FHCS-1 (RSV strain A2) (UniProt P03420); assay: ELISA; F coated 1250 ng/ml; stored -80° C.
[31] = biological target: FHCS-2 (RSV strain A2) (UniProt P03420); assay: ELISA; F coated 1250 ng/ml; stored -80° C.
[32] = biological target: FHCS-4 (RSV strain A2) (UniProt P03420); assay: ELISA; F coated 2500 ng/ml; stored -80° C.; remark: listed apart in the source
[33] = biological target: FHCS-1 (RSV strain A2) (UniProt P03420); assay: ELISA; F coated 2500 ng/ml; stored -80° C.; remark: listed apart in the source
[34] = biological target: FHCS-2 (RSV strain A2) (UniProt P03420); assay: ELISA; F coated 2500 ng/ml; stored -80° C.; remark: listed apart in the source
[35] = biological target: FHCS-4 (RSV strain A2) (UniProt P03420); assay: ELISA; F coated 156.3 ng/ml; stored 37° C. 4 W
[36] = biological target: FHCS-1 (RSV strain A2) (UniProt P03420); assay: ELISA; F coated 156.3 ng/ml; stored 37° C. 4 W
[37] = biological target: FHCS-2 (RSV strain A2) (UniProt P03420); assay: ELISA; F coated 156.3 ng/ml; stored 37° C. 4 W

Substance | OD value [1] | OD value [2] | OD value [3] | OD value [4] | OD value [5] | OD value [6] | OD value [9] | OD value [10] | OD value [11] | OD value [18] | OD value [19] | OD value [20] | OD value [21] | OD value [22] | OD value [23] | OD value [24] | OD value [25] | OD value [26] | OD value [27] | OD value [28] | also measured
AM14 monoclonal antibody | 0.045 OD and 0.019 OD | 0.109 OD and 0.096 OD | 0.45 OD and 0.185 OD | 0.04 OD and 0.028 OD | 0.021 OD and 0.03 OD | 0.02 OD and 0.024 OD | 0.004 OD and 0.007 OD | 0.005 OD | 0.005 OD | 0.006 OD and 0.007 OD | 0.006 OD and 0.008 OD | 0.005 OD and 0.006 OD | 0.007 OD and 0.008 OD | 0.018 OD and 0.024 OD | 0.025 OD and 0.019 OD | 0.007 OD | 0.003 OD and 0.005 OD | 0.005 OD and 0.006 OD | 0.004 OD and 0.007 OD | 0.005 OD | OD value [7]: 0.252 OD and 0.209 OD; OD value [8]: 0.985 OD and 0.796 OD; OD value [12]: 0.825 OD and 0.743 OD; OD value [13]: 1.77 OD and 2.07 OD; OD value [14]: 2.01 OD and 2.11 OD; OD value [15]: 0.008 OD and 0.006 OD; OD value [16]: 0.003 OD and 0.006 OD; OD value [17]: 0.007 OD; OD value [29]: 0.013 OD and 0.011 OD; OD value [30]: 0.006 OD; OD value [31]: 0.009 OD and 0.013 OD
Synagis® (antibody) | 1.8 OD and 1.78 OD | 1.91 OD and 2.11 OD | 1.82 OD and 1.84 OD | 0.825 OD and 0.743 OD | 1.35 OD | 1.65 OD and 1.91 OD | 0.138 OD and 0.12 OD | 0.142 OD and 0.168 OD | 0.154 OD and 0.143 OD | 0.378 OD and 0.389 OD | 0.324 OD and 0.612 OD | 0.42 OD and 0.4 OD | 1.05 OD and 0.985 OD | 1.17 OD and 1.22 OD | 0.995 OD and 0.91 OD | 0.094 OD and 0.066 OD | 0.17 OD and 0.181 OD | 0.209 OD and 0.208 OD | 0.052 OD and 0.033 OD | 0.089 OD and 0.108 OD | OD value [32]: 0.947 OD and 0.991 OD; OD value [33]: 1.5 OD and 1.61 OD; OD value [34]: 1.78 OD and 1.8 OD; OD value [35]: 0.05 OD and 0.048 OD; OD value [36]: 0.055 OD and 0.062 OD; OD value [37]: 0.069 OD and 0.058 OD; OD value [29]: 0.252 OD and 0.209 OD; OD value [30]: 0.357 OD and 0.35 OD; OD value [31]: 0.572 OD and 0.767 OD
